This assay has as its target biotinylated avi-tagged SARS-CoV-2 (Wuhan) receptor binding domain (RBD) (SARS-CoV-2 (Wuhan strain), UniProt P0DTC2, biotin (avi-tagged RBD labeled with biotin, BirA500)). The assay can be described thus: BLI. As to conditions: both partners purified.

Consider two molecules from paper PMC9089897 (PLoS Pathogens, 2022).

B1: REGN10933 (antibody, V domains shown)
VH: QVQLVESGGGLVKPGGSLRLSCAASGFTFSDYYMSWIRQAPGKGLEWVSYITYSGSTIYYADSVKGRFTISRDNAKSSLYLQMNSLRAEDTAVYYCARDRGTTMVPFDYWGQGTLVTVSS
VL: DIQMTQSPSSLSASVGDRVTITCQASQDITNYLNWYQQKPGKAPKLLIYAASNLETGVPSRFSGSGSGTDFTFTISGLQPEDIATYYCQQYDNLPLTFGGGTKVEIK
notes: also called Casirivimab
On to B1, for which the binding result is on record as “binds”.

B2: REGN10987 (antibody, V domains shown)
VH: QVQLVESGGGVVQPGRSLRLSCAASGFTFSNYAMYWVRQAPGKGLEWVAVISYDGSNKYYADSVKGRFTISRDNSKNTLYLQMNSLRTEDTAVYYCASGSDYGDYLLVYWGQGTLVTVSS
VL: QSALTQPASVSGSPGQSITISCTGTSSDVGGYNYVSWYQQHPGKAPKLMIYDVSKRPSGVSNRFSGSKSGNTASLTISGLQSEDEADYYCNSLTSISTWVFGGGTKLTVL
notes: also called Imdevimab
Consider B2, for which the binding result was “binds”.
